Molecular target: T1, soluble human GPC3 (human, UniProt P51654 25-563, limits assumed)
T1 construct: soluble human GPC3 as analyte; also called glypican 3
Test: SPR (Biacore), soluble human GPC3

T1 sequence (P51654 other isoform, or with tags, fused parts or gaps limits assumed, form in doubt): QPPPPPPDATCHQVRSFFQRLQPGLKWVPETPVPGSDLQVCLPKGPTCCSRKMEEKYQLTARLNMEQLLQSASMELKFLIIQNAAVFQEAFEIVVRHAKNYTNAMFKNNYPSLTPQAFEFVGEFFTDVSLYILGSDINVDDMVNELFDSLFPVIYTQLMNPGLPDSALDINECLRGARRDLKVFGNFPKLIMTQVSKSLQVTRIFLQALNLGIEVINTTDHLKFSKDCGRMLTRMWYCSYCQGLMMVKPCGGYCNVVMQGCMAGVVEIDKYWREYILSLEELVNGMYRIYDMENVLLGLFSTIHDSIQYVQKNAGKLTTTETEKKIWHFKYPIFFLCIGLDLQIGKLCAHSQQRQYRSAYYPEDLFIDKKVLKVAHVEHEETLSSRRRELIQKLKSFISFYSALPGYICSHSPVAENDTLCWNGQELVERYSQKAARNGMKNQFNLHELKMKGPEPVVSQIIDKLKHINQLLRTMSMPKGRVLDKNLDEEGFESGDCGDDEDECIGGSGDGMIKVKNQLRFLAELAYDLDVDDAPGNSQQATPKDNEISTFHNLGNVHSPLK

| Binder | Kd [nM] |
| --- | --- |
| GCH039-G1dh/none-Hi-Kn010G3/L0000-k0 (antibody, human IgG1, kappa, single-arm (one Fab)) heavy: not shown EPKSSDKTHTCPPCPAPELLGGPSVFLFPPKPKDTLMISRTPEVTCVVVDVSHEDPEVKFNWYVDGVEVHNAKTKPREEQYNSTYRVVSVLTVLHQDWLNGKEYKCKVSNKALPAPIEKTISKAKGQPREPQVCTLPPSRDELTKNQVSLWCLVKGFYPSDIAVEWESNGQPENNYKTTPPVLDSDGSFFLYSKLTVDKSRWQQGNVFSCSVMHEALHNRYTQKSLSLSP light: DIVMTQSPLSLPVTPGEPASISCRSSQSLVHSNRNTYLHWYQQKPGQAPRLLIYKVSNRFSGVPDRFSGSGSGTDFTLKISRVEAEDVGVYYCGQGTQVPYTFGQGTKLEIKRTVAAPSVFIFPPSDEQLKSGTASVVCLLNNFYPREAKVQWKVDNALQSGNSQESVTEQDSKDSTYSLSSTLTLSKADYEKHKVYACEVTHQGLSSPVTKSFNRGEC | 4.95 |
| GCH045-G1dh/none-Hi-Kn010G3/L0000-k0 (antibody, human IgG1, kappa, single-arm (one Fab)) heavy: not shown EPKSSDKTHTCPPCPAPELLGGPSVFLFPPKPKDTLMISRTPEVTCVVVDVSHEDPEVKFNWYVDGVEVHNAKTKPREEQYNSTYRVVSVLTVLHQDWLNGKEYKCKVSNKALPAPIEKTISKAKGQPREPQVCTLPPSRDELTKNQVSLWCLVKGFYPSDIAVEWESNGQPENNYKTTPPVLDSDGSFFLYSKLTVDKSRWQQGNVFSCSVMHEALHNRYTQKSLSLSP light: DIVMTQSPLSLPVTPGEPASISCRSSQSLVHSNRNTYLHWYQQKPGQAPRLLIYKVSNRFSGVPDRFSGSGSGTDFTLKISRVEAEDVGVYYCGQGTQVPYTFGQGTKLEIKRTVAAPSVFIFPPSDEQLKSGTASVVCLLNNFYPREAKVQWKVDNALQSGNSQESVTEQDSKDSTYSLSSTLTLSKADYEKHKVYACEVTHQGLSSPVTKSFNRGEC | 4.63 |
| GCH043-G1dh/none-Hi-Kn010G3/L0000-k0 (antibody, human IgG1, kappa, single-arm (one Fab)) heavy: not shown EPKSSDKTHTCPPCPAPELLGGPSVFLFPPKPKDTLMISRTPEVTCVVVDVSHEDPEVKFNWYVDGVEVHNAKTKPREEQYNSTYRVVSVLTVLHQDWLNGKEYKCKVSNKALPAPIEKTISKAKGQPREPQVCTLPPSRDELTKNQVSLWCLVKGFYPSDIAVEWESNGQPENNYKTTPPVLDSDGSFFLYSKLTVDKSRWQQGNVFSCSVMHEALHNRYTQKSLSLSP light: DIVMTQSPLSLPVTPGEPASISCRSSQSLVHSNRNTYLHWYQQKPGQAPRLLIYKVSNRFSGVPDRFSGSGSGTDFTLKISRVEAEDVGVYYCGQGTQVPYTFGQGTKLEIKRTVAAPSVFIFPPSDEQLKSGTASVVCLLNNFYPREAKVQWKVDNALQSGNSQESVTEQDSKDSTYSLSSTLTLSKADYEKHKVYACEVTHQGLSSPVTKSFNRGEC | 3.74 |
| GCH040-G1dh/none-Hi-Kn010G3/L0000-k0 (antibody, human IgG1, kappa, single-arm (one Fab)) heavy: not shown EPKSSDKTHTCPPCPAPELLGGPSVFLFPPKPKDTLMISRTPEVTCVVVDVSHEDPEVKFNWYVDGVEVHNAKTKPREEQYNSTYRVVSVLTVLHQDWLNGKEYKCKVSNKALPAPIEKTISKAKGQPREPQVCTLPPSRDELTKNQVSLWCLVKGFYPSDIAVEWESNGQPENNYKTTPPVLDSDGSFFLYSKLTVDKSRWQQGNVFSCSVMHEALHNRYTQKSLSLSP light: DIVMTQSPLSLPVTPGEPASISCRSSQSLVHSNRNTYLHWYQQKPGQAPRLLIYKVSNRFSGVPDRFSGSGSGTDFTLKISRVEAEDVGVYYCGQGTQVPYTFGQGTKLEIKRTVAAPSVFIFPPSDEQLKSGTASVVCLLNNFYPREAKVQWKVDNALQSGNSQESVTEQDSKDSTYSLSSTLTLSKADYEKHKVYACEVTHQGLSSPVTKSFNRGEC | 4.8 |
| GCH053-G1dh/none-Hi-Kn010G3/L0000-k0 (antibody, human IgG1, kappa, single-arm (one Fab)) heavy: not shown EPKSSDKTHTCPPCPAPELLGGPSVFLFPPKPKDTLMISRTPEVTCVVVDVSHEDPEVKFNWYVDGVEVHNAKTKPREEQYNSTYRVVSVLTVLHQDWLNGKEYKCKVSNKALPAPIEKTISKAKGQPREPQVCTLPPSRDELTKNQVSLWCLVKGFYPSDIAVEWESNGQPENNYKTTPPVLDSDGSFFLYSKLTVDKSRWQQGNVFSCSVMHEALHNRYTQKSLSLSP light: DIVMTQSPLSLPVTPGEPASISCRSSQSLVHSNRNTYLHWYQQKPGQAPRLLIYKVSNRFSGVPDRFSGSGSGTDFTLKISRVEAEDVGVYYCGQGTQVPYTFGQGTKLEIKRTVAAPSVFIFPPSDEQLKSGTASVVCLLNNFYPREAKVQWKVDNALQSGNSQESVTEQDSKDSTYSLSSTLTLSKADYEKHKVYACEVTHQGLSSPVTKSFNRGEC | 4.05 |
| GCH042-G1dh/none-Hi-Kn010G3/L0000-k0 (antibody, human IgG1, kappa, single-arm (one Fab)) heavy: not shown EPKSSDKTHTCPPCPAPELLGGPSVFLFPPKPKDTLMISRTPEVTCVVVDVSHEDPEVKFNWYVDGVEVHNAKTKPREEQYNSTYRVVSVLTVLHQDWLNGKEYKCKVSNKALPAPIEKTISKAKGQPREPQVCTLPPSRDELTKNQVSLWCLVKGFYPSDIAVEWESNGQPENNYKTTPPVLDSDGSFFLYSKLTVDKSRWQQGNVFSCSVMHEALHNRYTQKSLSLSP light: DIVMTQSPLSLPVTPGEPASISCRSSQSLVHSNRNTYLHWYQQKPGQAPRLLIYKVSNRFSGVPDRFSGSGSGTDFTLKISRVEAEDVGVYYCGQGTQVPYTFGQGTKLEIKRTVAAPSVFIFPPSDEQLKSGTASVVCLLNNFYPREAKVQWKVDNALQSGNSQESVTEQDSKDSTYSLSSTLTLSKADYEKHKVYACEVTHQGLSSPVTKSFNRGEC | 4.89 |

These reach a lower Kd. Values come first.

| Kd [nM] | Binder |
| --- | --- |
| 0.0315 | GCH054-G1dh/none-Hi-Kn010G3/L0222-k0 (antibody, human IgG1, kappa, single-arm (one Fab)) heavy: not shown EPKSSDKTHTCPPCPAPELLGGPSVFLFPPKPKDTLMISRTPEVTCVVVDVSHEDPEVKFNWYVDGVEVHNAKTKPREEQYNSTYRVVSVLTVLHQDWLNGKEYKCKVSNKALPAPIEKTISKAKGQPREPQVCTLPPSRDELTKNQVSLWCLVKGFYPSDIAVEWESNGQPENNYKTTPPVLDSDGSFFLYSKLTVDKSRWQQGNVFSCSVMHEALHNRYTQKSLSLSP light: DIVMTQSPLSLPVTPGEPASISCRSSQSPVHSNRNTYIQWYQQKPGQAPRLLIYKVSNRFSGVPDRFSGSGSGTDFTLKISRVEAEDVGVYYCYQGTQVPYTFGQGTKLEIKRTVAAPSVFIFPPSDEQLKSGTASVVCLLNNFYPREAKVQWKVDNALQSGNSQESVTEQDSKDSTYSLSSTLTLSKADYEKHKVYACEVTHQGLSSPVTKSFNRGEC |
| 0.0315 | GCH054-G1dh/none-Hi-Kn010G3/L0246-k0 (antibody, human IgG1, kappa, single-arm (one Fab)) heavy: not shown EPKSSDKTHTCPPCPAPELLGGPSVFLFPPKPKDTLMISRTPEVTCVVVDVSHEDPEVKFNWYVDGVEVHNAKTKPREEQYNSTYRVVSVLTVLHQDWLNGKEYKCKVSNKALPAPIEKTISKAKGQPREPQVCTLPPSRDELTKNQVSLWCLVKGFYPSDIAVEWESNGQPENNYKTTPPVLDSDGSFFLYSKLTVDKSRWQQGNVFSCSVMHEALHNRYTQKSLSLSP light: DIVMTQSPLSLPVTPGEPASISCRSSQSPVHSNRNTYIQWYQQKPGQAPRLLIYKVSNRFSGVPDRFSGSGSGTDFTLKISRVEAEDVGVYYCSQGTQVPYTFGQGTKLEIKRTVAAPSVFIFPPSDEQLKSGTASVVCLLNNFYPREAKVQWKVDNALQSGNSQESVTEQDSKDSTYSLSSTLTLSKADYEKHKVYACEVTHQGLSSPVTKSFNRGEC |
| 0.517 | GCH054-G1dh/none-Hi-Kn010G3/L0212-k0 (antibody, human IgG1, kappa, single-arm (one Fab)) heavy: not shown EPKSSDKTHTCPPCPAPELLGGPSVFLFPPKPKDTLMISRTPEVTCVVVDVSHEDPEVKFNWYVDGVEVHNAKTKPREEQYNSTYRVVSVLTVLHQDWLNGKEYKCKVSNKALPAPIEKTISKAKGQPREPQVCTLPPSRDELTKNQVSLWCLVKGFYPSDIAVEWESNGQPENNYKTTPPVLDSDGSFFLYSKLTVDKSRWQQGNVFSCSVMHEALHNRYTQKSLSLSP light: DIVMTQSPLSLPVTPGEPASISCRPSQSPVHSNRNTYLHWYQQKPGQAPRLLIYKVSNRFSGVPDRFSGSGSGTDFTLKISRVEAEDVGVYYCYQGTQVPYTFGQGTKLEIKRTVAAPSVFIFPPSDEQLKSGTASVVCLLNNFYPREAKVQWKVDNALQSGNSQESVTEQDSKDSTYSLSSTLTLSKADYEKHKVYACEVTHQGLSSPVTKSFNRGEC |
| 1.08 | GCH054-G1dh/none-Hi-Kn010G3/L0201-k0 (antibody, human IgG1, kappa, single-arm (one Fab)) heavy: not shown EPKSSDKTHTCPPCPAPELLGGPSVFLFPPKPKDTLMISRTPEVTCVVVDVSHEDPEVKFNWYVDGVEVHNAKTKPREEQYNSTYRVVSVLTVLHQDWLNGKEYKCKVSNKALPAPIEKTISKAKGQPREPQVCTLPPSRDELTKNQVSLWCLVKGFYPSDIAVEWESNGQPENNYKTTPPVLDSDGSFFLYSKLTVDKSRWQQGNVFSCSVMHEALHNRYTQKSLSLSP light: DIVMTQSPLSLPVTPGEPASISCRSSQPPVHSNRNTYLHWYQQKPGQAPRLLIYKVSNRFSGVPDRFSGSGSGTDFTLKISRVEAEDVGVYYCGQGTQVPYTFGQGTKLEIKRTVAAPSVFIFPPSDEQLKSGTASVVCLLNNFYPREAKVQWKVDNALQSGNSQESVTEQDSKDSTYSLSSTLTLSKADYEKHKVYACEVTHQGLSSPVTKSFNRGEC |
| 1.62 | GCH054-G1dh/none-Hi-Kn010G3/L0215-k0 (antibody, human IgG1, kappa, single-arm (one Fab)) heavy: not shown EPKSSDKTHTCPPCPAPELLGGPSVFLFPPKPKDTLMISRTPEVTCVVVDVSHEDPEVKFNWYVDGVEVHNAKTKPREEQYNSTYRVVSVLTVLHQDWLNGKEYKCKVSNKALPAPIEKTISKAKGQPREPQVCTLPPSRDELTKNQVSLWCLVKGFYPSDIAVEWESNGQPENNYKTTPPVLDSDGSFFLYSKLTVDKSRWQQGNVFSCSVMHEALHNRYTQKSLSLSP light: DIVMTQSPLSLPVTPGEPASISCRSSQPPVHSNRNTYIHWYQQKPGQAPRLLIYKVSNRFSGVPDRFSGSGSGTDFTLKISRVEAEDVGVYYCGQGTQVPYTFGQGTKLEIKRTVAAPSVFIFPPSDEQLKSGTASVVCLLNNFYPREAKVQWKVDNALQSGNSQESVTEQDSKDSTYSLSSTLTLSKADYEKHKVYACEVTHQGLSSPVTKSFNRGEC |
| 1.18 | GCH054-G1dh/none-Hi-Kn010G3/L0200-k0 (antibody, human IgG1, kappa, single-arm (one Fab)) heavy: not shown EPKSSDKTHTCPPCPAPELLGGPSVFLFPPKPKDTLMISRTPEVTCVVVDVSHEDPEVKFNWYVDGVEVHNAKTKPREEQYNSTYRVVSVLTVLHQDWLNGKEYKCKVSNKALPAPIEKTISKAKGQPREPQVCTLPPSRDELTKNQVSLWCLVKGFYPSDIAVEWESNGQPENNYKTTPPVLDSDGSFFLYSKLTVDKSRWQQGNVFSCSVMHEALHNRYTQKSLSLSP light: DIVMTQSPLSLPVTPGEPASISCRPSQSPVHSNRNTYLHWYQQKPGQAPRLLIYKVSNRFSGVPDRFSGSGSGTDFTLKISRVEAEDVGVYYCGQGTQVPYTFGQGTKLEIKRTVAAPSVFIFPPSDEQLKSGTASVVCLLNNFYPREAKVQWKVDNALQSGNSQESVTEQDSKDSTYSLSSTLTLSKADYEKHKVYACEVTHQGLSSPVTKSFNRGEC |
| 2.48 | GCH054-G1dh/none-Hi-Kn010G3/L0203-k0 (antibody, human IgG1, kappa, single-arm (one Fab)) heavy: not shown EPKSSDKTHTCPPCPAPELLGGPSVFLFPPKPKDTLMISRTPEVTCVVVDVSHEDPEVKFNWYVDGVEVHNAKTKPREEQYNSTYRVVSVLTVLHQDWLNGKEYKCKVSNKALPAPIEKTISKAKGQPREPQVCTLPPSRDELTKNQVSLWCLVKGFYPSDIAVEWESNGQPENNYKTTPPVLDSDGSFFLYSKLTVDKSRWQQGNVFSCSVMHEALHNRYTQKSLSLSP light: DIVMTQSPLSLPVTPGEPASISCRSSQSPVHSNRNTYIHWYQQKPGQAPRLLIYKVSNRFSGVPDRFSGSGSGTDFTLKISRVEAEDVGVYYCGQGTQVPYTFGQGTKLEIKRTVAAPSVFIFPPSDEQLKSGTASVVCLLNNFYPREAKVQWKVDNALQSGNSQESVTEQDSKDSTYSLSSTLTLSKADYEKHKVYACEVTHQGLSSPVTKSFNRGEC |

From patent US20210388110A1 (published 2021)
